Results on one substance are retold here after publication PMC11475653.

For the series the following is noted: ubiquitination at K45.

Turning to AMBRA1: K45R, the degradation_or_half_life entry is recorded as “decreases”.
